The record followed here is patent US20050060764A1, “Mouse model for bone metabolism” (priority 2003, published 2005).

Assay type in all cases: in vivo, mouse
Assay [1] is described as follows: Short-term bone resorption model: serum calcium after PTH infusion (Table 6). To be noted: mice infused with PTH 1 ug/100 g/6 hr. The source says: (§1) Parathyroidectomized rats are a well-established, short-term model of bone resorption and are useful in the investigation of antiresorptive agents. However, it is difficult to surgically remove only the parathyroid gland of rodents, and the inadvertent removal of the adjacent thyroid gland often has effects on thyroid hormone levels that introduce into the experiment an undesirable level of variability. Continuous infusion of parathyroid hormone (PTH) into intact, young (6-9 weeks old) mice reproduces the short-term bone resorption activity seen in parathyroidectomized rodents and is thus a useful, non-invasive model for the study of antiresorptive agents. The PTH infusion activates bone osteoclasts and causes them to degrade bone matrix, with a resulting rise in serum calcium. In accordance with the present invention, a short-term mouse model of bone resorption was developed and used to evaluate the effects of PTH infusion on serum calcium concentration and RANKL mRNA levels.
Female, Swiss-Webster mice (5-8 weeks old) were placed on a low calcium diet and implanted with mini-pumps delivering PTH continuously. The pumps were calibrated to deliver 1 ug PTH per 100 g bodyweight per 6 hour time period (1 ug/100 g/6 hr). With this procedure, over a 24 hour period, a total of 4 ug PTH per 100 g body weight is delivered (4 ug/100 g/24 hr). PTH infusion was conducted in these mice for 6, 12, 18 and 24 hours. At the end of each time period, the mice were sacrificed and measurements were made of the serum calcium, using the Sigma Diagnostics Calcium Kit (Sigma-Aldrich), and RANKL mRNA expression in the proximal tibia, as described in other examples herein. The data are expressed as percent increase relative to no PTH treatment.

Assay [2] in a line: Serum calcium concentration after PTH infusion in mice: specificity and dose response of RANK antisense oligonucleotide (Table 15). To be noted: control mice, no oligonucleotide; PTH 1 ug/100 g/6 hr 24 h, calcitonin 400 ng. As for the experimental part:
In accordance with the present invention, the specificity of RANK inhibition by a RANK antisense oligonucleotide was compared to that of an 8-base pair mismatch oligonucleotide.
ISIS 181080 ([…], SEQ ID NO: 357) is an antisense oligonucleotide targeted to mouse RANK. ISIS 208565 ([…], SEQ ID NO: 358) is an 8-base pair mismatch oligonucleotide. […] All cytidine residues are 5-methylcytidines.
Female Swiss-Webster mice (5-8 wks old) fed a low-calcium diet were treated for two weeks with either ISIS 181080 or ISIS 208565. The dose of oligonucleotide was either 40 mg/kg, 30 mg/kg, 20 mg/kg, or 10 mg/kg. After the 2-week treatment with oligonucleotides, the mice were infused with PTH by subcutaneously implanted mini-pumps at a dose of 4 ug/100 g over 24 hours. A group of control mice were dosed with either saline, PTH alone (1 ug/100 g/6 hr) or calcitonin (400 ng) plus PTH (1 ug/100 g/6 hr). After 24 hours of PTH infusion (total PTH delivery of 4 ug/100 g), the mice were sacrificed and measurements were made of serum calcium with the Sigma Diagnostics Calcium Kit (Sigma-Aldrich) and RANK mRNA expression in proximal tibia (as described in other examples herein). The results shown in Table 15 are the average from four mice per group. Percent inhibition of RANK mRNA is normalized to PTH treatment alone. […] The data also illustrate that these effects are occurring due to an antisense mechanism.

Assay [3] is described as follows: Serum calcium concentration 24 hours after PTH infusion in mice treated with RANKL antisense oligonucleotides (Table 10). To be noted: no oligonucleotide treatment, PTH 1 ug/100 g/6 hr 24 h, calcitonin 400 ng. As for the experimental part:
In accordance with the present invention, the effect of antisense oligonucleotide inhibition on PTH-induced serum calcium concentration increase was measured in mice. The serum calcium concentration in mice was measured as a function of antisense oligonucleotide dose. Calcitonin, a known bone antiresorptive agent, was used as a control for antiresorptive activity.
Female Swiss-Webster (5-8 wks old) mice fed a low-calcium diet were dosed subcutaneously for two weeks with either the oligonucleotides ISIS 180819 (SEQ ID NO: 185) or 180814 (SEQ ID NO: 180) at concentrations of 5 mg/kg, 15 mg/kg, 30 mg/kg, or 40 mg/kg. A control group of mice were treated with calcitonin (400 ng) plus PTH (1 ug/100 g/6 hr), PTH alone (1 ug/100 g/6 hr) or saline. Treatment with oligonucleotides was followed with infusion of PTH by subcutaneously implanted mini-pumps at a dose of 1 ug/100 g/6 hr. After 24 hours of PTH infusion (total PTH delivery of 4 ug/100 g), the mice were sacrificed and the serum calcium concentration was measured with the Sigma Diagnostics Calcium Kit (Sigma-Aldrich). The data, summarized in Table 10 are averages from eight mice. Percent mRNA inhibition is normalized to PTH alone treatment.

For a further assay, the system named is RANKL mRNA. As to the kind of experiment: Short-term bone resorption model: RANKL mRNA expression in proximal tibia after PTH infusion (Table 6). To be noted: mice infused with PTH 1 ug/100 g/6 hr.
Description: Probes and primers to mouse RANKL were designed to hybridize to a mouse RANKL sequence, using published sequence information (GenBank accession number AF013170.1, incorporated herein as SEQ ID NO:ll). For mouse RANKL the PCR primers were: • forward primer: […] (SEQ ID NO:12) • reverse primer: […] (SEQ ID NO: 13) and • the PCR probe was: FAM-[…]-TAMRA (SEQ ID NO: 14) where FAM is the fluorescent reporter dye and TAMRA is the quencher dye. For mouse GAPDH the PCR primers were: • forward primer: […](SEQ ID NO:15) • reverse primer: […](SEQ ID NO:16) and the • PCR probe was: 5′ JOE-[…]-TAMRA 3′ (SEQ ID NO: 17) where JOE is the fluorescent reporter dye and TAMRA is the quencher dye.
as §1
Female, Swiss-Webster mice (5-8 weeks old) were placed on a low calcium diet and implanted with mini-pumps delivering PTH continuously. The pumps were calibrated to deliver 1 ug PTH per 100 g bodyweight per 6 hour time period (1 ug/100 g/6 hr). […] The data are expressed as percent increase relative to no PTH treatment.

B1: parathyroid hormone (peptide, UniProt P01270 32-115, looked up)
Parathyroid hormone: SVSEIQLMHNLGKHLNSMERVEWLRKKLQDVHNFVALGAPLAPRDAGSQRPRKKEDNVLVESHEKSLGEADKADVNVLTKAKSQ
notes: parathyroid hormone infused to induce bone resorption in the mouse model
As to B1, the “Serum Calcium Concentration % control” value was determined as 109 % control in assay [1] (6 hours), 115 % control in assay [1] (12 hours), 125 % control in assay [1] (18 hours) and 230 % control in assay [1] (24 hours (4 ug/100 g)). Further, the serum calcium in assay [2] came out at 20 mg/dL; in assay [3] (control groups under ISIS 180814 columns), 22 mg/dL; in assay [3] (control groups under ISIS 180819 columns) it was 22 mg/dL. For the same molecule, the entries for the “RANKL mRNA % control” value in the assay with RANKL mRNA (12 hours), with RANKL mRNA (18 hours) and with RANKL mRNA (24 hours (4 ug/100 g)) were 242 % control, 117 % control and 205 % control, respectively.
